Experimental data taken from paper PMC3552960, “Constitutively Active CCR5 Chemokine Receptors Differ in Mediating HIV Envelope-dependent Fusion” (PLoS ONE, 2013).
Substitutions are numbered along the chain they refer to.

Tests used:
Experiment in all cases: radioligand binding
Conditions in all cases: one partner purified
[1] = target: T1, CCR5 Thr^2.56(82)Pro mutant receptor (human, UniProt P51681 1-352, Thr^2.56(82)Pro)
T1 construct: also called T^2.69(82)P; source: HOS-CD4-Luc, transiently transfected, on cells (fusion)
T1 sequence: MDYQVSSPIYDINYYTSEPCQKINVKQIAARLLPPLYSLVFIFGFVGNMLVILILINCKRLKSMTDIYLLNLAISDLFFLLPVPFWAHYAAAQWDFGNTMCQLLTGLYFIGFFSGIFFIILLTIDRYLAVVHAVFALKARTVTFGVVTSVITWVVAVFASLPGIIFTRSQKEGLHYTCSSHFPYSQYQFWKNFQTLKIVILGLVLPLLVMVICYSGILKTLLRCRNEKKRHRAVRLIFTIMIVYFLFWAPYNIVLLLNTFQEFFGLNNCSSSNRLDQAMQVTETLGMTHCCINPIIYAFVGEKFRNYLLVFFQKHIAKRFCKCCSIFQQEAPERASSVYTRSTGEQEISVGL

[2] = target: T2, CCR5 Thr^2.56(82)Lys/Arg^6.32(225)Gln double-mutant receptor (human, UniProt P51681 1-352, Thr^2.56(82)Lys | Arg^6.32(225)Gln)
T2 construct: also called T^2.56(82)K/R^6.32(225)Q; T^2.69(82)K/R^6.32(225)Q; source: HOS-CD4-Luc, transiently transfected, on cells (fusion)
T2 sequence: T1 sequence with P82K, R225Q

[3] = target: T3, wild type human CCR5 chemokine receptor (human, UniProt P51681 1-352)
T3 construct: source: HOS-CD4-Luc, transiently transfected, on cells (fusion)

[4] = target: T4, CCR5 Thr^2.56(82)Pro/Arg^6.32(225)Gln double-mutant receptor (human, UniProt P51681 1-352, Thr^2.56(82)Pro | Arg^6.32(225)Gln)
T4 construct: also called T^2.56(82)P/R^6.32(225)Q; T^2.69(82)P/R^6.32(225)Q; source: HOS-CD4-Luc, transiently transfected, on cells (fusion)
T4 sequence: T1 sequence with R225Q

B1: macrophage inflammatory protein 1β (MIP-1β, CCL4), recombinant human, unlabelled (ligand)
chain: APMGSDPPTACCFSYTARKLPRNFVVDYYETSSLCSQPAVVFQTKRSKQVCADPSESWVQEYVYDLELN
notes: also called unlabelled MIP-1β; source: bought: Peprotec (Rocky Hill, NJ)
**Q.** For B1, which IC50 [1] is on record?
**A.** 31.9 nM

**Q.** What about the IC50 [2] of the same binder?
**A.** 20.7 nM

**Q.** What about the IC50 [3] of the same binder?
**A.** 32.6 nM

**Q.** And the IC50 [4]?
**A.** 30.6 nM
